Substitutions are numbered along the chain they refer to. Numbers in names are those of the source.
T1: cynomolgus IL-18BP (cynomolgus monkey)
T1 construct: Generated in-house; also called cyIL-18BP; cyno IL-18BP
T1 chain: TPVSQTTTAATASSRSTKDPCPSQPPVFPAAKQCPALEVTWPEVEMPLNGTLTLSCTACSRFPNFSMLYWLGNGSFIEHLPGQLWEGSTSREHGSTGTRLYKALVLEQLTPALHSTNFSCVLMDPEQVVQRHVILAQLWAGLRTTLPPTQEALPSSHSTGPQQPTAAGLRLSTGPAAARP

T2: human IL-18BP (interleukin-18 binding protein, isoform A) (human, UniProt O95998 31-194)
T2 construct: cell assays used Sino Biological 10357-H08H; PBMC assay 1 relies on endogenous IL-18BP; UniProt number is printed as 095998; also called hIL-18BP
T2 sequence: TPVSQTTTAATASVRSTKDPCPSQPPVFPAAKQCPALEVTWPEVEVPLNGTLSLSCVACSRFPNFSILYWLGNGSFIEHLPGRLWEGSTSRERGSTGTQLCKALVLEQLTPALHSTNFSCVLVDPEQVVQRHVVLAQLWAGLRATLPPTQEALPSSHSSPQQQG

B1: SA340a (antibody, human IgG1, V domains shown)
VH: QVQLQESGPGLVKPSQTLSLTCTVSGYSITQDYNAHWIRQPPGKGLEWIGYIHYSGQTYYNPSLKSRVTISRDTSKNQFSLKLSSVTAADTAVYYCARNFGSIYVNYFDYWGQGTLVTVSS
VL: EIVLTQSPATLSLSPGERATLSCSASSSVSYMYWYQQKPGQAPRPLIYRTSNLASGIPARFSGSGSGTDFTLTISSLEPEDFAVYYCQQYHSYPKFGGGTKVEIK
notes: humanized; human IgG1 (suffix a), kappa
B2: SA319a (antibody, human IgG1, V domains shown)
VH: B1 VH with Y59N
VL: B1 VL with K95T
notes: as for B1
B3: SA315a (antibody, human IgG1, V domains shown)
VH: B1 VH with Q31S, Y59M
VL: B1 VL with K95T
notes: as for B1
B4: SA328a (antibody, human IgG1, V domains shown)
VH: B1 VH with Q31S, Q57S, Y59N, F100Y
VL: B1 VL with P94V, K95T
notes: as for B1
B5: SA313a (antibody, human IgG1, V domains shown)
VH: B1 VH with Q31S, Q57S, Y59M
VL: B1 VL with K95T
notes: as for B1
B6: SA330a (antibody, human IgG1, V domains shown)
VH: B1 VH with Q31S
VL: B1 VL with K95T
notes: as for B1
B7: SA311a (antibody, human IgG1, V domains shown)
VH: B1 VH with Q31S, Y59M, F100Y
VL: B1 VL with K95T
notes: as for B1
B8: SA326a (antibody, human IgG1, V domains shown)
VH: B1 VH with Q31S, Q57S, Y59N, F100Y
VL: B1 VL with Q89L, K95T
notes: as for B1
B9: SA329a (antibody, human IgG1, V domains shown)
VH: B1 VH with Q31S, Q57S, Y59N, F100Y
VL: B1 VL
notes: as for B1
B10: SA325a (antibody, human IgG1, V domains shown)
VH: B1 VH with Q31S, Q57S, Y59N, F100Y
VL: B1 VL with Q89E, K95T
notes: as for B1
B11: SA312a (antibody, human IgG1, V domains shown)
VH: B1 VH with Q57S, Y59M, F100Y
VL: B1 VL with K95T
notes: as for B1
B12: SA321a (antibody, human IgG1, V domains shown)
VH: B1 VH with Y59L
VL: B1 VL with K95T
notes: as for B1
B13: SA327a (antibody, human IgG1, V domains shown)
VH: B1 VH with Q31S, Q57S, Y59N, F100Y
VL: B1 VL with S92G, K95T
notes: as for B1
B14: SA317a (antibody, human IgG1, V domains shown)
VH: B1 VH with Q31S, Q57S, Y59L, F100Y
VL: B1 VL with K95T
notes: as for B1
B15: SA316a (antibody, human IgG1, V domains shown)
VH: B1 VH with Q31S, Q57S, F100Y
VL: B1 VL with K95T
notes: as for B1
B16: SA318a (antibody, human IgG1, V domains shown)
VH: B1 VH with Y59M
VL: B1 VL with K95T
notes: as for B1
B17: SA302a heavy chain variant N33bK, C34A (antibody, human IgG1, V domains shown)
VH: B1 VH with Q31S, N34K, Q57S, Y59N, F100Y
VL: B1 VL with K95T
notes: library variant, human IgG1/kappa, from supernatant
B18: heavy chain library variant C34L (antibody, V domains shown)
VH: B1 VH with Q31S, A35L, Q57S, Y59N, F100Y
VL: B1 VL with K95T
B19: heavy chain library variant C34R (antibody, V domains shown)
VH: B1 VH with Q31S, A35R, Q57S, Y59N, F100Y
VL: B1 VL with K95T
B20: heavy chain library variant C34P (antibody, V domains shown)
VH: B1 VH with Q31S, A35P, Q57S, Y59N, F100Y
VL: B1 VL with K95T
B21: heavy chain library variant C34D (antibody, V domains shown)
VH: B1 VH with Q31S, A35D, Q57S, Y59N, F100Y
VL: B1 VL with K95T
B22: heavy chain library variant C34F (antibody, V domains shown)
VH: B1 VH with Q31S, A35F, Q57S, Y59N, F100Y
VL: B1 VL with K95T
B23: heavy chain library variant C34E (antibody, V domains shown)
VH: B1 VH with Q31S, A35E, Q57S, Y59N, F100Y
VL: B1 VL with K95T
B24: heavy chain library variant C34H (antibody, V domains shown)
VH: B1 VH with Q31S, A35H, Q57S, Y59N, F100Y
VL: B1 VL with K95T
B25: heavy chain library variant C34K (antibody, V domains shown)
VH: B1 VH with Q31S, A35K, Q57S, Y59N, F100Y
VL: B1 VL with K95T
B26: heavy chain library variant C34I (antibody, V domains shown)
VH: B1 VH with Q31S, A35I, Q57S, Y59N, F100Y
VL: B1 VL with K95T
B27: heavy chain library variant C34Q (antibody, V domains shown)
VH: B1 VH with Q31S, A35Q, Q57S, Y59N, F100Y
VL: B1 VL with K95T
B28: heavy chain library variant C34N (antibody, V domains shown)
VH: B1 VH with Q31S, A35N, Q57S, Y59N, F100Y
VL: B1 VL with K95T
notes: position 34 variant, human IgG1/kappa, from supernatant; C is the SA44a residue
B29: SA302a heavy chain variant N33bQ, C34A (antibody, human IgG1, V domains shown)
VH: B1 VH with Q31S, N34Q, Q57S, Y59N, F100Y
VL: B1 VL with K95T
notes: as for B17
B30: SA302a heavy chain variant N33bT, C34A (antibody, human IgG1, V domains shown)
VH: B1 VH with Q31S, N34T, Q57S, Y59N, F100Y
VL: B1 VL with K95T
notes: as for B17
B31: SA302a heavy chain variant N33bM, C34A (antibody, human IgG1, V domains shown)
VH: B1 VH with Q31S, N34M, Q57S, Y59N, F100Y
VL: B1 VL with K95T
notes: as for B17

Molecular target: T1, cynomolgus IL-18BP
Experiment: ratio of BLI KDs, cyno against human IL-18BP

| Binder | Cyno/human [ratio] |
| --- | --- |
| B1 | 1.33 |

Molecular target: T2, human IL-18BP (interleukin-18 binding …)
Experiment: BLI (Octet), mAb on AHC biosensor

| Binder | Kd [nM] |
| --- | --- |
| B2 | 0.254 |
| B3 | 0.039 |
| B4 | 0.133 |
| B5 | 0.272 |
| B6 | 0.076 |
| B7 | 0.243 |
| B8 | 0.128 |
| B9 | 0.107 |
| B10 | 0.468 |
| B11 | 0.117 |
| B12 | 0.136 |
| B13 | 0.249 |
| B14 | 0.329 |
| B15 | 0.228 |
| B16 | 0.015 |
| B1 | 0.027 |

Molecular target: T1, cynomolgus IL-18BP
Experiment: BLI (Octet), mAb on AHC biosensor

| Binder | Kd [nM] |
| --- | --- |
| B1 | 0.036 |

Molecular target: T2, human IL-18BP (interleukin-18 binding …)
Experiment: cell-based or functional assay

| Binder | EC50 in PBMC Assay 1 (endogenous IL-18BP), IFNγ [nM] | EC50 in PBMC Assay 2 (precomplexed IL-18BP), IFNγ [nM] |
| --- | --- | --- |
| B2 | 0.2 | 0.07 |
| B3 | 0.5 | 0.49 |
| B4 | 2 | 5.8 |
| B5 | 1.2 | 0.71 |
| B6 | 21 | 0.9 |
| B7 | 0.6 | 1.24 |
| B8 | 7.5 | 1.2 |
| B9 | 5.3 | 7.4 |
| B10 | 6.1 | 5 |
| B11 | 2.1 | 0.74 |
| B12 | 0.9 | 0.85 |
| B13 | 7.1 | 4 |
| B14 | 0.4 | 0.45 |
| B15 | 0.6 | 0.64 |
| B16 | 0.9 | 0.7 |

Molecular target: T2, human IL-18BP (interleukin-18 binding …)
Experiment: BLI single-concentration screen, apparent KD

| Binder | Kd [nM] |
| --- | --- |
| B17 | 0.3 |
| B18 | 0.4 |
| B19 | 1.8 |
| B20 | 20.6 |
| B21 | 0.5 |
| B22 | 0.6 |
| B23 | 0.9 |
| B24 | 0.4 |
| B25 | 1 |
| B26 | 1 |
| B27 | 0.6 |
| B28 | 1 |
| B29 | 1.8 |
| B30 | 0.1 |
| B31 | 0.9 |

Molecular target: T1, cynomolgus IL-18BP
Experiment: BLI single-concentration screen, apparent KD

| Binder | Kd [nM] |
| --- | --- |
| B17 | 0.4 |
| B18 | 0.3 |
| B19 | 0.6 |
| B20 | 9.8 |
| B21 | 0.4 |
| B22 | 0.5 |
| B23 | 0.5 |
| B24 | 0.2 |
| B25 | 0.5 |
| B26 | 0.6 |
| B27 | 0.4 |
| B28 | 0.6 |
| B29 | 1.6 |
| B30 | 0.3 |
| B31 | 1 |

Molecular target: T2, human IL-18BP (interleukin-18 binding …)
Experiment: BLI, affinity column of Table E8

| Binder | Kd [nM] |
| --- | --- |
| B2 | 0.254 |
| B3 | 0.039 |
| B4 | 0.133 |
| B5 | 0.272 |
| B6 | 0.076 |
| B7 | 0.243 |
| B8 | 0.128 |
| B9 | 0.107 |
| B10 | 0.468 |
| B11 | 0.117 |
| B12 | 0.136 |
| B13 | 0.249 |
| B14 | 0.329 |
| B15 | 0.228 |
| B16 | 0.015 |
